This passage reports -log Kd value results from US20250236642A1, “PHARMACEUTICAL COMPOSITION FOR TREATMENT OR PREVENTION OF ADULT T-CELL LEUKEMIA” (NEC Corporation, priority 2022, published 2025).

In the first test the target is HLA-A*02:06 molecule. The test can be described thus: flow cytometry, RA2.6 cells.
Settings: not given
A general note: In flow cytometry, cells or beads pass a laser one at a time.
YTYDPPTTI [peptide of SEQ ID NO: 3] had a -log Kd value of -5.17.

The next test concerns the target HLA-A*02:06 molecule. The test can be described thus: flow cytometry, RA2.6 cells.
Settings: not given
The source holds these as a separate data set.
The molecule LLEEHGATL [peptide of SEQ ID NO: 41] displayed a -log Kd value of -5.3.

MLPQTPSHL [peptide of SEQ ID NO: 24]: the -log Kd value was -3.96.

Take ILSDHQQSQ [peptide of SEQ ID NO: 70]: the -log Kd value is over -3.

Consider EAIDGYITL [peptide of SEQ ID NO: 47], for which the -log Kd value was -4.72. In the case of GSPDEFSND [peptide of SEQ ID NO: 72], the -log Kd value is over -3. In turn, ALPKIRARV [peptide of SEQ ID NO: 12] showed a -log Kd value of -4.78. Consider CTDEHQWQL [peptide of SEQ ID NO: 39], for which the -log Kd value is -6.8.

In turn, ALAPPTAQL [peptide of SEQ ID NO: 6] returned a -log Kd value of -6.41. Molecule GILSDHQQS [peptide of SEQ ID NO: 74] yielded a -log Kd value of over -3.

As for CIDEHQWQL [peptide of SEQ ID NO: 28], the -log Kd value was -5.25. ARHSTIPLV [peptide of SEQ ID NO: 77] had a -log Kd value of over -3. The molecule STGESAQTS [peptide of SEQ ID NO: 71] had a -log Kd value of over -3. On the same count and under the same terms, in the case of ATLAPAVLL [peptide of SEQ ID NO: 10] it was -6.12; in that of LTEEHGATL [peptide of SEQ ID NO: 42], -4.92; in that of YTYDPPTTI [peptide of SEQ ID NO: 3], -6.17. Regarding LMEEHGATL [peptide of SEQ ID NO: 13], the -log Kd value was -5.68. Take ASPSHMTSM [peptide of SEQ ID NO: 81]: the -log Kd value is over -3. Consider YLYDPPTTI [peptide of SEQ ID NO: 4], for which the -log Kd value was -5.87. SPDEFSNDF [peptide of SEQ ID NO: 73]: the -log Kd value is over -3. On to LLLFSAAAL [peptide of SEQ ID NO: 1], for which the -log Kd value is -4.96.

As for ATAPPTAQL [peptide of SEQ ID NO: 25], the -log Kd value was -6.16. For LHEEHGATL [peptide of SEQ ID NO: 79], the -log Kd value is over -3.

On to LAEEHGATL [peptide of SEQ ID NO: 61], for which the -log Kd value was -4.5.

Molecule CMIVHQGTI [peptide of SEQ ID NO: 36] gave a -log Kd value of -4.37. LPPARHSTI [peptide of SEQ ID NO: 76] displayed a -log Kd value of over -3. In the case of VMSHHGEKL [peptide of SEQ ID NO: 19], the -log Kd value was -4.3. YFFTVIFSF [peptide of SEQ ID NO: 44]: the -log Kd value is over -4.4.

GTHLDAGTV [peptide of SEQ ID NO: 51] showed a -log Kd value of -3.66. Take LLITRKSFI [peptide of SEQ ID NO: 16]: the -log Kd value is -4.63. Turning to VLLQQFQTA [peptide of SEQ ID NO: 15], the -log Kd value is -5.47.

Regarding KFLEAFHEV [peptide of SEQ ID NO: 8], the -log Kd value is -5.81.

In turn, LVEEHGATL [peptide of SEQ ID NO: 43] showed a -log Kd value of -4.86. Same read-out and setting: in the case of GYITLGKPH [peptide of SEQ ID NO: 80] it was over -3; in that of LTITRKSFI [peptide of SEQ ID NO: 45], -3.79; in that of ETLQFIDSM [peptide of SEQ ID NO: 53], -3.37. For AQAPPTAQL [peptide of SEQ ID NO: 5], the -log Kd value was -5.85. SLPNEKQTS [peptide of SEQ ID NO: 69] displayed a -log Kd value of over -3. Still for that read-out and setting: the figure for THLDAGTVE [peptide of SEQ ID NO: 75] is over -3; for AQISAYRTC [peptide of SEQ ID NO: 50] it is -4.09. The same measure, in the same setting: the figure for LIEEHGATL [peptide of SEQ ID NO: 40] is -4.81; for LVITRKSFI [peptide of SEQ ID NO: 30] it is -3.61; for LLNPNRQTI [peptide of SEQ ID NO: 23] it is -3.53.

IFADVSSST [peptide of SEQ ID NO: 78] gave a -log Kd value of over -3. LAITRKSFI [peptide of SEQ ID NO: 46] displayed a -log Kd value of -3.04. YVYDPPTTI [peptide of SEQ ID NO: 2] displayed a -log Kd value of -5.55.

VMQIDGVQP [peptide of SEQ ID NO: 67] showed a -log Kd value of -3.41. For ALRPAPALL [peptide of SEQ ID NO: 26], the -log Kd value was over -3.37.

With LMITRKSFI [peptide of SEQ ID NO: 17], the -log Kd value was -4.53. In the case of SSFEFFEEA [peptide of SEQ ID NO: 37], the -log Kd value is -7.42. SLVLTWAAL [peptide of SEQ ID NO: 14] gave a -log Kd value of -6.24. On the same count and under the same terms, the figure for ISAYRTCWI [peptide of SEQ ID NO: 34] is -3.14; for FSNDFGQSL [peptide of SEQ ID NO: 35] it is -4.71.

The molecule LIITRKSFI [peptide of SEQ ID NO: 29] displayed a -log Kd value of -3.64.

A further test has as its target HLA-A*02:01 molecule. The test can be described thus: flow cytometry, T2 cells.
Settings: not given
As to YQLSPPITW (modifications not checked) [peptide of SEQ ID NO: 32], the -log Kd value is -3.46.

The target of a further test is HLA-A*02:01 molecule. Kind of test: flow cytometry, T2 cells.
Settings: not given
The source holds these as a separate data set.
Consider ALPAPHLTL (modifications not checked) [peptide of SEQ ID NO: 18], for which the -log Kd value is -5.99. Turning to IALETPVWI (modifications not checked) [peptide of SEQ ID NO: 20], the -log Kd value is -5.11.

In the case of IQYSSFHNL (modifications not checked) [peptide of SEQ ID NO: 21], the -log Kd value is -5.29. The same measure, in the same setting: the figure for ALQPPCPNL (modifications not checked) [peptide of SEQ ID NO: 31] is -5.13. Take ALQFLIPRL (modifications not checked) [peptide of SEQ ID NO: 22]: the -log Kd value was -5.9. YQLSPPITW (modifications not checked) [peptide of SEQ ID NO: 32] gave a -log Kd value of -3.46.

Another test deals with HLA-A*24:02 molecule. Kind of test: flow cytometry, C1R-A24 cells.
Settings: not given
The molecule YQLSPPITW (modifications not checked) [peptide of SEQ ID NO: 32] gave a -log Kd value of -5.76.

A further test addresses HLA-A*24:02 molecule. Kind of test: flow cytometry, C1R-A24 cells.
Settings: not given
The source holds these as a separate data set.
Molecule ALPAPHLTL (modifications not checked) [peptide of SEQ ID NO: 18] registered a -log Kd value of -6.73. For IALETPVWI (modifications not checked) [peptide of SEQ ID NO: 20], the -log Kd value was -5.48. In turn, IQYSSFHNL (modifications not checked) [peptide of SEQ ID NO: 21] came in with a -log Kd value of -6.53. With ALQPPCPNL (modifications not checked) [peptide of SEQ ID NO: 31], the -log Kd value was -5.31. Turning to ALQFLIPRL (modifications not checked) [peptide of SEQ ID NO: 22], the -log Kd value is -4.96.

With YQLSPPITW (modifications not checked) [peptide of SEQ ID NO: 32], the -log Kd value was -6.76.

The test is the same for the next values; noted with them: remark: other sources report otherwise.
In turn, YPGWHSTTI [peptide of SEQ ID NO: 52] gave a -log Kd value of -5.66.
